Target: T1, HA tag-carrying soluble HM1.24 antigen sHM164 (HM1.24 antigen extracellular region in which the C terminal … (human, UniProt Q10589 49-163, limits assumed))
T1 construct: also called HA-sHM164
T1 sequence: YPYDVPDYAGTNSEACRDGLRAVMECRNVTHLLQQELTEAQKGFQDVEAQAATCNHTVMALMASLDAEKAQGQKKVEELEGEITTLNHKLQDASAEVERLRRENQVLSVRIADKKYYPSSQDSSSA
Assay: sandwich ELISA: anti-HA antibody coated, CHO culture supernatant, humanized anti-HM1.24 antibody as detector, AP-labeled anti-human IgG
Method: The soluble human HM1.24 ELISA described below was conducted as follows. In order to select a highly productive strain, the amount of the soluble protein produced was compared by a sandwich ELISA using anti-HA antibody (Boehringer Mannheim) and a humanized anti-HM1.24 antibody (K. Ono et al., The 20th Japan Molecular Biology Annual Meeting, General Lecture 3-501-P-478), whereby selecting the strain. Since the antigen concentration was not known because a purified antigen was not obtained, the number of the cells upon the ELISA was taken into account when comparing the concentration.
An anti-HA antibody (Boehringer Mannheim) was adjusted at 1 μg/ml in a Coating Buffer (C.B.: 0.1 mol/L sodium bicarbonate buffer, pH 9.6, 0.2% sodium azide) was added to a plane bottom 96-well plate (Nunc) in the volume of 100 μl/well, and coated overnight at 4° C.

binding result: binds
B1: reconstructed human anti-HM1.24 antibody (humanized anti-HM1.24 antibody), light chain version a and heavy chain version s described in WO98/14580 (antibody, V domains shown)
VH: QVQLVQSGAEVKKPGASVKVSCKASGYTFTPYWMQWVRQAPGQGLEWMGSIFPGDGDTRYSQKFKGRVTITADKSTSTAYMELSSLRSEDTAVYYCARGLRRGGYYFDYWGQGTTVTVSS
VL: DIQMTQSPSSLSASVGDRVTITCKASQDVNTAVAWYQQKPGKAPKLLIYSASNRYTGVPSRFSGSGSGTDFTFTISSLQPEDIATYYCQQHYSTPFTFGQGTKVEIK
notes: Plasmid names point to a human gamma 1 heavy and a kappa light constant region; It was detected with an anti-human IgG antibody in the ELISA

— patent publication US20060153883A1 (Chugai, published 2006)
